Experimental data: PMC6035175, “Ternary complex of Kif2A-bound tandem tubulin heterodimers represents a kinesin-13-mediated microtubule depolymerization reaction intermediate” (Nature Communications, 2018)
Each block holds one compound with its values, some of them ahead of it.

Tests used:
[1] = target: αβ-tubulin heterodimer from bovine brain (bovine) (UniProt Q6B856); experiment: SEC-SAXS; in-line Superdex 200 10/300 GL, 20 mM HEPES, 150 mM NaCl, 1 mM MgCl2, pH 7.2; 25 μM tubulin, 27 μM DARPin, 20 μM Kif2A-NM, 0.1 mM AMPPNP; 270 kDa peak; 22 °C
[2] = target: αβ-tubulin heterodimer from bovine brain (bovine) (UniProt Q6B856); experiment: not stated; Kif2A-MD with tubulin, shown in Supplementary Figure 6; method not given
Kif2A-MD = target: T1, Kif2A-MD (Homo sapiens, UniProt O00139); experiment: malachite green phosphate release ATPase assay; assay type: biochemical; details: tubulin- or microtubule-stimulated; BRB80-based buffer pH 6.8, 1 mM MgCl2, 75 mM KCl; without DARPin
T1 construct: motor domain without most of the neck, residues 203-554, pGex-6P1, PreScission-cleaved GST fusion; 1:1 complex with tubulin; with Tubulin alpha chain (Bos taurus, brain); Tubulin beta chain (Bos taurus, brain)
T1 sequence (O00139 203-554): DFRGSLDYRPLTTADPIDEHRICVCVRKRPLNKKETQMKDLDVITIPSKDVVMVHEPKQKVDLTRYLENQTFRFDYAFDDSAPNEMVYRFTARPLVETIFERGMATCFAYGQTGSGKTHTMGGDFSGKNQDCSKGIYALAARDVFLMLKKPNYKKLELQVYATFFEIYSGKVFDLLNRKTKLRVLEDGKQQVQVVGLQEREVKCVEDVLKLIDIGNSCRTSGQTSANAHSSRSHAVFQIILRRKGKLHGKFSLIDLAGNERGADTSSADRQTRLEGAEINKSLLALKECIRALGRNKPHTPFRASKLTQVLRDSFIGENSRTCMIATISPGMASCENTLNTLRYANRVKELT
T1 sequence (P81947 whole entry partner, the tested form may be a part): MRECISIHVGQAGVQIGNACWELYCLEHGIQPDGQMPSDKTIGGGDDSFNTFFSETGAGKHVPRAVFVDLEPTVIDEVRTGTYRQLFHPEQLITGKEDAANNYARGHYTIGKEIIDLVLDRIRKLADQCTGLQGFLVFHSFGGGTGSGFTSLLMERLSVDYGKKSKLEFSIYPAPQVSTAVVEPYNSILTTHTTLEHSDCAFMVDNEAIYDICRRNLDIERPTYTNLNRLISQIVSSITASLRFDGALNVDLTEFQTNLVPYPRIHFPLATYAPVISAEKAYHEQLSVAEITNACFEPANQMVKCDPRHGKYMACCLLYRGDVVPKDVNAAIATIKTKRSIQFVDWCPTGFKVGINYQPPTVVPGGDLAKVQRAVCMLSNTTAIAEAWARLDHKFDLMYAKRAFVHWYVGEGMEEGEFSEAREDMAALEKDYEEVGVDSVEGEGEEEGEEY
T1 sequence (Q6B856 whole entry partner, the tested form may be a part): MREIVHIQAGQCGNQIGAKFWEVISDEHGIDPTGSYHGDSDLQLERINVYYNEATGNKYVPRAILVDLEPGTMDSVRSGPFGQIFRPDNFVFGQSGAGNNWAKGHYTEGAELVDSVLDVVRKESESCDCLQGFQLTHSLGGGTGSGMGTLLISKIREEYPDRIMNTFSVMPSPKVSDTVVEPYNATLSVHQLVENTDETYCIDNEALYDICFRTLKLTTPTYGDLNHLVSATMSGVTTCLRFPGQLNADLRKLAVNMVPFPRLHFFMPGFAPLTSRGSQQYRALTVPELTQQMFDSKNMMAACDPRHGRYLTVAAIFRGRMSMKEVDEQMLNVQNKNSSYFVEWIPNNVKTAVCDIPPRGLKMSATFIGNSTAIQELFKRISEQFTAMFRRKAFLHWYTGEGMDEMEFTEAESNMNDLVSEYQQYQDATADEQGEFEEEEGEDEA

Kif2A-NM = target: T2, Kif2A-NM (Homo sapiens, UniProt O00139); experiment: malachite green phosphate release ATPase assay; assay type: biochemical; details: tubulin- or microtubule-stimulated; BRB80-based buffer pH 6.8, 1 mM MgCl2, 75 mM KCl; without DARPin
T2 construct: neck plus motor domain, residues 153-553, monomer, 48 kDa, His-tagged, from E. coli BL21(DE3) pLysS; studied with bovine brain tubulin (1:2 complex), crystal also holds DARPin D1; full length 706 residues; with Tubulin alpha chain (Bos taurus, brain); Tubulin beta chain (Bos taurus, brain)
T2 sequence (O00139 153-553): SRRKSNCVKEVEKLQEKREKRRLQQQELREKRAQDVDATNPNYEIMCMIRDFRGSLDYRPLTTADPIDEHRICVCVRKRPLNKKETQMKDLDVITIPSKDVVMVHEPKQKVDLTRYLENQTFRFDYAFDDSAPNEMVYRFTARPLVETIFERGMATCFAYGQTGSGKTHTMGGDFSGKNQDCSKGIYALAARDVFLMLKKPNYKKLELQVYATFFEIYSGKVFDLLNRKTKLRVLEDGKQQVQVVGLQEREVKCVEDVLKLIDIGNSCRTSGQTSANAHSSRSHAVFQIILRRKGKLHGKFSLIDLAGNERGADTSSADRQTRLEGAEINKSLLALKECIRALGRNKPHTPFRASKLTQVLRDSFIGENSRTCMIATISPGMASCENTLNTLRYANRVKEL
T2 sequence (P81947 whole entry partner, the tested form may be a part): as the sequence (P81947 whole entry partner, the tested form may be a part) above
T2 sequence (Q6B856 whole entry partner, the tested form may be a part): as the sequence (Q6B856 whole entry partner, the tested form may be a part) above

Chain of Kif2A-NM (human Kif2A neck plus motor domain, residues 153–553) (O00139 153-553): as the sequence (O00139 153-553) above
Chain of Kif2A-MD (human Kif2A motor domain without the neck, residues 203–554) (O00139 203-554): as the sequence (O00139 203-554) above

stoichiometry N (αβ-tubulin dimers per Kif2A-NM) [1]: 2
Compound: Kif2A-NM (human Kif2A neck plus motor domain, residues 153–553) (from UniProt O00139 153-553) (domain or fragment)

stoichiometry N (Kif2A-MD per tubulin dimer (1:1)) [2]: 1
Compound: Kif2A-MD (human Kif2A motor domain without the neck, residues 203–554) (from UniProt O00139 203-554) (domain or fragment)

Compound: Nc1ncnc2c1ncn2[C@@H]1O[C@H](COP(=O)(O)OP(=O)(O)OP(=O)(O)O)[C@@H](O)[C@H]1O [ATP]
ATP turnover rate (Kif2A-MD): ATP turnover rates of Kif2A-NM (orange) and Kif2A-MD (gray) in the presence of tubulin | ATP turnover rate (Kif2A-NM): ATP turnover rates of Kif2A-NM (orange) and Kif2A-MD (gray) in the presence of tubulin
